Laboratory results: PMC10219370, “Exploring Redox Modulation of Plant UDP-Glucose Pyrophosphorylase” (International Journal of Molecular Sciences, 2023)
Where a chain is given by its changes, count along the chain named. Names may count otherwise.

How the values were obtained:
Experiment in all cases: purified protein
purified protein [1] = substrate: O=P(O)(O)OP(=O)(O)O; format: biochemical, Hordeum vulgare; details: reduced enzyme (2 mM DTT overnight), 5 mM MgCl2, Hepes-NaOH pH 7.5, room temperature
purified protein [2] = substrate: O=c1ccn([C@@H]2O[C@H](CO[P@@](=O)(O)O[P@@](=O)(O)O[C@H]3O[C@H](CO)[C@@H](O)[C@H](O)[C@H]3O)[C@@H](O)[C@H]2O)c(=O)[nH]1; format: biochemical, Hordeum vulgare; details: reduced enzyme (2 mM DTT overnight), 5 mM MgCl2, Hepes-NaOH pH 7.5, room temperature
purified protein [3] = substrate: O=P(O)(O)OP(=O)(O)O; format: biochemical, Saccharum hybrid cultivar; details: untreated enzyme, UDPG fixed at 2 mM, 5 mM MgCl2, Hepes-NaOH pH 7.5, room temperature
purified protein [4] = substrate: O=c1ccn([C@@H]2O[C@H](CO[P@@](=O)(O)O[P@@](=O)(O)O[C@H]3O[C@H](CO)[C@@H](O)[C@H](O)[C@H]3O)[C@@H](O)[C@H]2O)c(=O)[nH]1; format: biochemical, Saccharum hybrid cultivar; details: untreated enzyme, PPi fixed at 1 mM, 5 mM MgCl2, Hepes-NaOH pH 7.5, room temperature

B1: barley UGPase (Hordeum vulgare) (protein)
chain: MAAAAVAADSKIDGLRDAVAKLGEISENEKAGFISLVSRYLSGEAEQIEWSKIQTPTDEVVVPYDTLAPPPEDLDAMKALLDKLVVLKLNGGLGTTMGCTGPKSVIEVRNGFTFLDLIVIQIESLNKKYGCSVPLLLMNSFNTHDDTQKIVEKYSNSNIEIHTFNQSQYPRIVTEDFLPLPSKGQTGKDGWYPPGHGDVFPSLNNSGKLDTLLSQGKEYVFVANSDNLGAIVDIKILNHLIHNQNEYCMEVTPKTLADVKGGTLISYEGRVQLLEIAQVPDEHVDEFKSIEKFKIFNTNNLWVNLKAIKRLVDAEALKMEIIPNPKEVDGVKVLQLETAAGAAIRFFEKAIGINVPRSRFLPVKATSDLLLVQSDLYTLVDGYVIRNPARVKPSNPSIELGPEFKKVANFLARFKSIPSIVELDSLKVSGDVSFGSGVVLKGNVTIAAKAGVKLEIPDGAVLENKDINGPEDI
notes: active as monomer
Question: Which Km (purified protein [1]; UDPG fixed at 1 mM) does the source give for B1 here?
Answer: Its Km is 30 µM.

Question: And the Km (purified protein [2]; PPi fixed at 1 mM)?
Answer: The Km was 40 µM.

B2: barley UGPase (Hordeum vulgare; C99S) (protein)
chain: B1 chain with C99S
notes: active as monomer
Question: With B2 as the protein, how does the Km (purified protein [1]; UDPG fixed at 2 mM) read?
Answer: Its Km is 310 µM.

Question: What about the Km (purified protein [2]; PPi fixed at 5 mM) of the same protein?
Answer: The Km was 110 µM.

B3: sugarcane UGPase (Saccharum hybrid cultivar SP80-3280) (protein)
chain: MAAAAAAEVSVDEKLDKLRAEVAKLDQISENEKAGFISLVSRYLSGEAEQIEWSKIQTPTDEVVVPYDTLASPPEDLEETKKLLDKLVVLKLNGGLGTTMGCTGPKSVIEVRNGFTFLDLIVIQIESLNKKYGCSVPLLLMNSFNTHDDTQKIVEKYSNSNIEIHTFNQSQYPRIVTEDFLPLPSKGKSGKDGWYPPGHGDVFPSLNNSGKLDILLAQGKEYVFIANSDNLGAIVDIKILNHLINNQNEYCMEVTPKTLADVKGGTLISYEGRVQLLEIAQVPDEHVNEFKSIEKFKIFNTNNLWVNLKAIKRLVEAEALKMEIIPNPKEVDGVKVLQLETAAGAAIRFFDKAIGINVPRSRFLPVKATSDLLLVQSDLYTLVDGFVIRNPARANPANPSIELGPEFKKVANFLARFKSIPSIVELDSLKVSGDVWFGSGITLKGKVTITAKSGVKLEIPDGAVLENKDVNGPEDL
notes: active as monomer
Question: Which Km (purified protein [3]) does the source give for B3 here?
Answer: The Km was 40 µM.

Question: What about the Km (purified protein [4]) of the same protein?
Answer: Its Km is 80 µM.

B4: sugarcane UGPase (Saccharum hybrid cultivar SP80-3280; C102S) (protein)
chain: B3 chain with C102S
notes: active as monomer
Question: What does the source list for B4?
Answer: Km (purified protein [3]): 230 µM; Km (purified protein [4]): 110 µM
